According to US20160257748A1 (Amgen, published 2016):
Blank lines part the entries; values can stand above or below the binder they belong to.

Assays:
[1] = molecular target: T1, Human Epidermal Growth Factor Receptor (HER2) (human, UniProt P04626 23-1255); test: cell-based or functional assay
[2] = molecular target: T1, Human Epidermal Growth Factor Receptor …; test: cell-based or functional assay; remark: listed apart in the source
[3] = molecular target: T1, Human Epidermal Growth Factor Receptor …; test: cell-based or functional assay; remark: listed apart in the source
[4] = molecular target: T1, Human Epidermal Growth Factor Receptor …; test: FACS titration on T47D cells
folate receptor 1 [5] = molecular target: T2, folate receptor 1 (human, UniProt P15328 25-234); test: cell-based or functional assay
folate receptor 1 [6] = molecular target: T2, folate receptor 1; test: cell-based or functional assay; remark: listed apart in the source

T2 sequence (P15328 25-234): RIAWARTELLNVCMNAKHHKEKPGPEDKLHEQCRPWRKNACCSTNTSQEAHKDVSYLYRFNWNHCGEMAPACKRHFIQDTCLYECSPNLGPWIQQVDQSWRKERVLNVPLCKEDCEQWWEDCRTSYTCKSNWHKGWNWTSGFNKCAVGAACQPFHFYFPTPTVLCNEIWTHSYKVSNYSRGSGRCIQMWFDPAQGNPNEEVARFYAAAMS

EC50 (pM), % CD25+ T cells (with SKOV-3 cells) [1]: 79.3 pM | EC50 (pM), % of T cells that are dividing (with SKOV-3 cells) [1]: 76.7 pM | EC50 (pM), T cell dependent cytolysis of BT474 cells [2]: 638 pM | EC50 (pM), T cell dependent cytolysis of SKOV-3 cells [2]: 165 pM | EC50, T cell dependent cytolysis of JIMT-1 cells [3]: 0.0565 nM
B1: aHER2-Fc-aCD3 (bispecific antibody)
chain 1: EVQLLEQSGAELVRPGALVKLSCKASGFKIKDYFVNWVKQRPEQGLEWIGWIDPENDNSLYGPNFQDKASITADTSSNTGYLQLSGLTSEDTAVYYCALYYGSRGDAMDYWGQGTTVTVSSASTKGPSVFPLAPSSKSTSGGTAALGCLVKDYFPEPVTVSWNSGALTSGVHTFPAVLQSSGLYSLSSVVTVPSSSLGTQTYICNVNHKPSNTKVDKRVEPKSCDKTHTCPPCPAPEAAGGPSVFLFPPKPKDTLMISRTPEVTCVVVDVSHEDPEVKFNWYVDGVEVHNAKTKPREEQYNSTYRVVSVLTVLHQDWLNGKEYKCKVSNKALPAPIEKTISKAKGQPREPQVYTLPPSRKEMTKNQVSLTCLVKGFYPSDIAVEWESNGQPENNYKTTPPVLKSDGSFFLYSKLTVDKSRWQQGNVFSCSVMHEALHNHYTQKSLSLSPGKAAAGGGGSGGGGSEVQLVESGGGLVQPGGSLKLSCAASGFTFNSYAMNWVRQAPGKGLEWVARIRSKYNNYATYYADSVKGRFTISRDDSKNTAYLQMNNLKTEDTAVYYCVRHGNFGNSYVSWWAYWGQGTLVTVSSASTKGPSVFPLAPSSKSTSGGTAALGCLVKDYFPEPVTVSWNSGALTSGVHTFPAVLQSSGLYSLSSVVTVPSSSLGTQTYICNVNHKPSNTKVDKRVEPKSC
chain 2: not shown

binding result [4]: binds
B2: aCD3/HER2 heterodimer (bispecific antibody)
chain 1: EVQLVESGGGLVQPGGSLKLSCAASGFTFNSYAMNWVRQAPGKGLEWVARIRSKYNNYATYYADSVKGRFTISRDDSKNTAYLQMNNLKTEDTAVYYCVRHGNFGNSYVSWWAYWGQGTLVTVSSGGGGSGGGGSELVMTQTPSSLSASLGDRVTISCRASQDISNYLNWYQQKPDGTVKLLIYYTSRLHSGVPSRFSGSGSGTDYSLTISNLEQEDIATYFCQQGNTLPLTFGAGTKLEIKASTKGPSVFPLAPCSRSTSESTAALGCLVKDYFPEPVTVSWNSGALTSGVHTFPAVLQSSGLYSLSSVVTVPSSNFGTQTYTCNVDHKPSNTKVDKTVGGGGSAAAEPKSSDKTHTCPPCPAPEAAGGPSVFLFPPKPKDTLMISRTPEVTCVVVDVSHEDPEVKFNWYVDGVEVHNAKTKPREEQYNSTYRVVSVLTVLHQDWLNGKEYKCKVSNKALPAPIEKTISKAKGQPREPQVYTLPPSREEMTKNQVSLTCLVKGFYPSDIAVEWESNGQPENNYDTTPPVLDSDGSFFLYSDLTVDKSRWQQGNVFSCSVMHEALHNHYTQKSLSLSPGK
chain 2: not shown
notes: also called P136797.3; positive control heterodimeric antibody

EC50, T cell dependent cytolysis of JIMT-1 cells [3]: 0.0518 nM
B3: aCD3-Fc-aHER2 (bispecific antibody)
chain 1: EVQLVESGGGLVQPGGSLKLSCAASGFTFNSYAMNWVRQAPGKGLEWVARIRSKYNNYATYYADSVKGRFTISRDDSKNTAYLQMNNLKTEDTAVYYCVRHGNFGNSYVSWWAYWGQGTLVTVSSASTKGPSVFPLAPSSKSTSGGTAALGCLVKDYFPEPVTVSWNSGALTSGVHTFPAVLQSSGLYSLSSVVTVPSSSLGTQTYICNVNHKPSNTKVDKRVEPKSCDKTHTCPPCPAPEAAGGPSVFLFPPKPKDTLMISRTPEVTCVVVDVSHEDPEVKFNWYVDGVEVHNAKTKPREEQYNSTYRVVSVLTVLHQDWLNGKEYKCKVSNKALPAPIEKTISKAKGQPREPQVYTLPPSRKEMTKNQVSLTCLVKGFYPSDIAVEWESNGQPENNYKTTPPVLKSDGSFFLYSKLTVDKSRWQQGNVFSCSVMHEALHNHYTQKSLSLSPGKAAAGGGGSGGGGSEVQLLEQSGAELVRPGALVKLSCKASGFKIKDYFVNWVKQRPEQGLEWIGWIDPENDNSLYGPNFQDKASITADTSSNTGYLQLSGLTSEDTAVYYCALYYGSRGDAMDYWGQGTTVTVSSASTKGPSVFPLAPSSKSTSGGTAALGCLVKDYFPEPVTVSWNSGALTSGVHTFPAVLQSSGLYSLSSVVTVPSSSLGTQTYICNVNHKPSNTKVDKRVEPKSC
chain 2: not shown

EC50 (pM), T cell dependent cytolysis of Cal-51 cells (folate receptor 1 [5]): 60.9 pM | EC50 (concentration for half maximal lysis), T cell dependent cytolysis of Cal-51 cells (folate receptor 1 [6]): 0.114 nM | EC50 (concentration for half maximal lysis), T cell dependent cytolysis of T47D cells (folate receptor 1 [6]): 0.105 nM
B4: aFOLR1-Fc-aCD3 (bispecific antibody)
chain 1: QVQLQESGPGLVKPSQTLSLTCTVSGGSISSGAYYWTWIRQHPGKGLEWIGYIYYSGSTYYNPSLKSRVSISIDTSKNQFSLKLSSVTAADTAVYYCARGSSSWFDYWGQGTLVTVSSASTKGPSVFPLAPSSKSTSGGTAALGCLVKDYFPEPVTVSWNSGALTSGVHTFPAVLQSSGLYSLSSVVTVPSSSLGTQTYICNVNHKPSNTKVDKRVEPKSCDKTHTCPPCPAPEAAGGPSVFLFPPKPKDTLMISRTPEVTCVVVDVSHEDPEVKFNWYVDGVEVHNAKTKPREEQYNSTYRVVSVLTVLHQDWLNGKEYKCKVSNKALPAPIEKTISKAKGQPREPQVYTLPPSRKEMTKNQVSLTCLVKGFYPSDIAVEWESNGQPENNYKTTPPVLKSDGSFFLYSKLTVDKSRWQQGNVFSCSVMHEALHNHYTQKSLSLSPGKAAAGGGGSGGGGSEVQLVESGGGLVQPGGSLKLSCAASGFTFNSYAMNWVRQAPGKGLEWVARIRSKYNNYATYYADSVKGRFTISRDDSKNTAYLQMNNLKTEDTAVYYCVRHGNFGNSYVSWWAYWGQGTLVTVSSASTKGPSVFPLAPSSKSTSGGTAALGCLVKDYFPEPVTVSWNSGALTSGVHTFPAVLQSSGLYSLSSVVTVPSSSLGTQTYICNVNHKPSNTKVDKRVEPKSC
chain 2: not shown

EC50 (pM), T cell dependent cytolysis of Cal-51 cells (folate receptor 1 [5]): 306 pM
B5: aCD3-Fc-aFOLR1 (bispecific antibody)
chain 1: EVQLVESGGGLVQPGGSLKLSCAASGFTFNSYAMNWVRQAPGKGLEWVARIRSKYNNYATYYADSVKGRFTISRDDSKNTAYLQMNNLKTEDTAVYYCVRHGNFGNSYVSWWAYWGQGTLVTVSSASTKGPSVFPLAPSSKSTSGGTAALGCLVKDYFPEPVTVSWNSGALTSGVHTFPAVLQSSGLYSLSSVVTVPSSSLGTQTYICNVNHKPSNTKVDKRVEPKSCDKTHTCPPCPAPEAAGGPSVFLFPPKPKDTLMISRTPEVTCVVVDVSHEDPEVKFNWYVDGVEVHNAKTKPREEQYNSTYRVVSVLTVLHQDWLNGKEYKCKVSNKALPAPIEKTISKAKGQPREPQVYTLPPSRKEMTKNQVSLTCLVKGFYPSDIAVEWESNGQPENNYKTTPPVLKSDGSFFLYSKLTVDKSRWQQGNVFSCSVMHEALHNHYTQKSLSLSPGKAAAGGGGSGGGGSQVQLQESGPGLVKPSQTLSLTCTVSGGSISSGAYYWTWIRQHPGKGLEWIGYIYYSGSTYYNPSLKSRVSISIDTSKNQFSLKLSSVTAADTAVYYCARGSSSWFDYWGQGTLVTVSSASTKGPSVFPLAPSSKSTSGGTAALGCLVKDYFPEPVTVSWNSGALTSGVHTFPAVLQSSGLYSLSSVVTVPSSSLGTQTYICNVNHKPSNTKVDKRVEPKSC
chain 2: not shown
